Two molecules from paper PMC4780765, “Role of Interaction and Nucleoside Diphosphate Kinase B in Regulation of the Cystic Fibrosis Transmembrane Conductance Regulator Function by cAMP-Dependent Protein Kinase A” (PLoS ONE, 2016) can be followed below.

Assay [1] has as its target T1, cystic fibrosis transmembrane conductance regulator (human (endogenous in 16HBE14o-), UniProt P13569 1-1480).
T1 construct: CFTR, endogenous in the wild type human bronchial epithelial cell line 16HBE14o-; band at 175 kDa; also called CFTR; ABCC7; source: endogenous, 16HBE14o- cells (membrane fraction, lysates, immunoprecipitates)
Nature of the assay: far-Western, overlay or dot blot; blot of a CFTR immunoprecipitate or of 16HBE14o- membrane proteins, 100 μg, overlaid with 1 μg recombinant NDPK-B without or with cAMP or 8-Br-cAMP (100 μM); probed for NDPK-B. The note with it: one partner purified.

Assay [2] concerns the target T1, cystic fibrosis transmembrane …. Nature of the assay: co-IP; CFTR or NDPK-B immunoprecipitates from 16HBE14o- membranes; cells untreated, treated with FSK (10 μM)/IBMX (100 μM) for 30 min, or with PKI (100 nM) or H-89 (1 μM) for 5 min before FSK/IBMX. The note with it: partners not purified.
The target is the same in assay [3]. As to the kind of experiment: far-Western, overlay or dot blot; blot of SDS-PAGE-separated 16HBE14o- membrane proteins (100 μg) overlaid with 16HBE14o- cytosol proteins (0.5 mg) in TBS with 5% milk, 60 min at room temperature, without or with cAMP, 8-Br-cAMP or dioctanoyl-cAMP (100 μM); probed for NDPK-B. The note with it: partners not purified.

T1 sequence (P13569 whole entry): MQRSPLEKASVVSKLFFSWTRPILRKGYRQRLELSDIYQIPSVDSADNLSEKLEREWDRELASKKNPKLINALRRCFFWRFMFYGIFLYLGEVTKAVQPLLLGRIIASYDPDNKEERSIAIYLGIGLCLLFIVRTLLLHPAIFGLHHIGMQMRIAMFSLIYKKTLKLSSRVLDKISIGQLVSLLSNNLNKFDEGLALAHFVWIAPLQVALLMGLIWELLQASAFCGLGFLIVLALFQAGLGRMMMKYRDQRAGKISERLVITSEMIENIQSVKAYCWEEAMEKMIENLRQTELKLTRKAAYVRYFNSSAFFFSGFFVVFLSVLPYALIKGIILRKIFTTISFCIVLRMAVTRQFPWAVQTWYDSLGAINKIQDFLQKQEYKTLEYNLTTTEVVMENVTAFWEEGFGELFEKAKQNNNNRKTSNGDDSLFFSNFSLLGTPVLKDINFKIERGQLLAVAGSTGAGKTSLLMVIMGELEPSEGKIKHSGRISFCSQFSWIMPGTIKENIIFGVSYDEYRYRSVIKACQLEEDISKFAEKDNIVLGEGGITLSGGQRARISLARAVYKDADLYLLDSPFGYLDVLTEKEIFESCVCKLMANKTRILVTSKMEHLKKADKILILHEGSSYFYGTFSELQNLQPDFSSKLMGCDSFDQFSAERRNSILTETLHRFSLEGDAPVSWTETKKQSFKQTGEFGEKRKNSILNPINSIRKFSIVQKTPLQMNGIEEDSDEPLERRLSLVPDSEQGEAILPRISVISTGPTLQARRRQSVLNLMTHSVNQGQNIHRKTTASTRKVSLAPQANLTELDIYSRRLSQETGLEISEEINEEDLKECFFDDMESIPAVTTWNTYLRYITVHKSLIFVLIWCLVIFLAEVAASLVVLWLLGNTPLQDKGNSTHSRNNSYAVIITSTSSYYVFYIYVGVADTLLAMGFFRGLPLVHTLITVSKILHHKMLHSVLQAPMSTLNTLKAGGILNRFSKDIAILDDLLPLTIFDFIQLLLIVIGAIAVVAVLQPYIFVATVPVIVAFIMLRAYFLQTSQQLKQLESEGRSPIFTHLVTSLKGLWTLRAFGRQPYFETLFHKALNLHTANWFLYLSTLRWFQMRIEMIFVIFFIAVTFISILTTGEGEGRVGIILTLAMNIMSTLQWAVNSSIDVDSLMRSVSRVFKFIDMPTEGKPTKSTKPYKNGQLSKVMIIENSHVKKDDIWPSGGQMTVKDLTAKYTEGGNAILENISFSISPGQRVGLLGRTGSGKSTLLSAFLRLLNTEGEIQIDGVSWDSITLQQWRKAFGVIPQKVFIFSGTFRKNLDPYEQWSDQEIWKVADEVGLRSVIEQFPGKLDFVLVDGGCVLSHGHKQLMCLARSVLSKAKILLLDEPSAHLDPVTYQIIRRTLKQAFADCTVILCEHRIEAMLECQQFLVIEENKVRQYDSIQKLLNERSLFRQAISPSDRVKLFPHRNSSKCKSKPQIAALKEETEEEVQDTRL

B1: human recombinant nucleoside diphosphate kinase B isoform (natural protein)
chain: ANLERTFIAIKPDGVQRGLVGEIIKRFEQKGFRLVAMKFLRASEEHLKQHYIDLKDRPFFPGLVKYMNSGPVVAMVWEGLNVVKTGRVMLGETNPADSKPGTIRGDFCIQVGRNIIHGSDSVKSAEKEISLWFKPEELVDYKSCAHDWVYE
notes: human recombinant nucleoside diphosphate kinase B (NDPK-B, NM23-H2); 16 kDa on the gel; also called NDPK-B; purified NDPK-B; source: recombinant, purified; prepared and provided by Professor Ioan Lascu
Turning to B1, the “fold increase of NDPK-B staining at 175 kDa with 8-Br-cAMP (100 μM) over overlay without cAMP” value in assay [1] was 20 fold.

B2: nucleoside diphosphate kinase B (natural protein, human (endogenous in 16HBE14o-), UniProt P22392 1-152, looked up)
chain: MANLERTFIAIKPDGVQRGLVGEIIKRFEQKGFRLVAMKFLRASEEHLKQHYIDLKDRPFFPGLVKYMNSGPVVAMVWEGLNVVKTGRVMLGETNPADSKPGTIRGDFCIQVGRNIIHGSDSVKSAEKEISLWFKPEELVDYKSCAHDWVYE
notes: nucleoside diphosphate kinase B (NDPK-B, NM23-H2), endogenous in the human bronchial epithelial cell line 16HBE14o-; also called NDPK-B; NDPK B; source: endogenous, 16HBE14o- cells (membrane and cytosol fractions, lysates)
On to B2, for which the “fold increase of co-immunoprecipitation with FSK/IBMX over untreated cells” value in assay [2] stood at 3 fold. The “fold increase of NDPK-B staining at 175 kDa with dioctanoyl cAMP (100 μM) over overlay without cAMP” value in assay [3] is 20 fold.
